Paper doi:10.1101/199034 (bioRxiv, 2017)

B1: human Kir6.2 (natural protein, UniProt Q14654 1-390, looked up)
chain: MLSRKGIIPEEYVLTRLAEDPAKPRYRARQRRARFVSKKGNCNVAHKNIREQGRFLQDVFTTLVDLKWPHTLLIFTMSFLCSWLLFAMAWWLIAFAHGDLAPSEGTAEPCVTSIHSFSSAFLFSIEVQVTIGFGGRMVTEECPLAILILIVQNIVGLMINAIMLGCIFMKTAQAHRRAETLIFSKHAVIALRHGRLCFMLRVGDLRKSMIISATIHMQVVRKTTSPEGEVVPLHQVDIPMENGVGGNSIFLVAPLIIYHVIDANSPLYDLAPSDLHHHQDLEIIVILEGVVETTGITTQARTSYLADEILWGQRFVPIVAEEDGRYSVDYSKFGNTVKVPTPLCTARQLDEDHSLLEALTLASARGPLRKRSVPMAKAKPKFSISPDSLS

What was measured:
[1] = molecular target: human KATPem (human SUR1-human Kir6.2 fusion construct) (human); assay: cryo-EM structure
[2] = molecular target: the molecule itself; assay: cryo-EM structure

Row | Molecule | stoichiometry N [1] | stoichiometry N [2]
1 | human KATPem (human SUR1-human Kir6.2 fusion construct) (complex) | 4 | 
2 | B1 |  | 4
